Data taken from patent US20110076234A1 (MOLMED, published 2011).
*1 amine or outer side, *2 acyl side, *3 side chain or, on linkers, in order; H or OH if unused. Where no end group is shown, it is not given here. [ ]: non-standard residue; d: D form. βAsp = O=C(O)[C@H](CC(=O)[*:2])N[*:1]

Biological target: T1, Human αvβ3 integrin (purified) (human, UniProt P06756 31-1048; P05106 27-788)
T1 construct: Bought purified integrin, adsorbed on microtiter plates (0.5-2 µg/ml in DPBS with Ca2+ and Mg2+); also called avβ3; vitronectin receptor
T1 sequence (P06756 31-1048, form in doubt, chain 1 of 2): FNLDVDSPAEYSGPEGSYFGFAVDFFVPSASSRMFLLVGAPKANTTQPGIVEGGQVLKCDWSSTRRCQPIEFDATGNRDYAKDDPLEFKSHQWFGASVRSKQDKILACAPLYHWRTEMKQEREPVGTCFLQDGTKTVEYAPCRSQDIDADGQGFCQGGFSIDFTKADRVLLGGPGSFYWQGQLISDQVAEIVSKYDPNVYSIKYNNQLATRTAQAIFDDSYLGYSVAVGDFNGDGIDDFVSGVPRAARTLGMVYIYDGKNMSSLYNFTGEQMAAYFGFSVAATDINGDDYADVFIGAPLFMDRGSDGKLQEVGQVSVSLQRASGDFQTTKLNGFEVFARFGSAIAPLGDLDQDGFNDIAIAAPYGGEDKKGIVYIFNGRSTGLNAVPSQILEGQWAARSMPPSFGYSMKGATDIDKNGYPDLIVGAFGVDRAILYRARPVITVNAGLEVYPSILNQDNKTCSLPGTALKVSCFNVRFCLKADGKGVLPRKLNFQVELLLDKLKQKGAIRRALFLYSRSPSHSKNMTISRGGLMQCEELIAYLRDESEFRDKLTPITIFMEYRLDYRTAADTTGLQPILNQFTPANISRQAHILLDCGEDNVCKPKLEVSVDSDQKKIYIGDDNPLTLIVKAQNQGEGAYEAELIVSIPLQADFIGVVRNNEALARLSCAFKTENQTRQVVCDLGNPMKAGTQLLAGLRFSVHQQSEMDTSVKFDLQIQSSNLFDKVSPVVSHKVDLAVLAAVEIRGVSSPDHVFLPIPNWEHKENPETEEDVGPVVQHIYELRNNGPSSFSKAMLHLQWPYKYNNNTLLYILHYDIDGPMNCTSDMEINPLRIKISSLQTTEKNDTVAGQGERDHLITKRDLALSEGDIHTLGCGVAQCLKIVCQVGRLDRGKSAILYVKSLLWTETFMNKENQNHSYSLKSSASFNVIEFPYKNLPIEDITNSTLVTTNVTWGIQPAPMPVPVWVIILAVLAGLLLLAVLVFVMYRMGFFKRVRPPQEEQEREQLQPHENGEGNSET
T1 sequence (P05106 27-788, form in doubt, chain 2 of 2): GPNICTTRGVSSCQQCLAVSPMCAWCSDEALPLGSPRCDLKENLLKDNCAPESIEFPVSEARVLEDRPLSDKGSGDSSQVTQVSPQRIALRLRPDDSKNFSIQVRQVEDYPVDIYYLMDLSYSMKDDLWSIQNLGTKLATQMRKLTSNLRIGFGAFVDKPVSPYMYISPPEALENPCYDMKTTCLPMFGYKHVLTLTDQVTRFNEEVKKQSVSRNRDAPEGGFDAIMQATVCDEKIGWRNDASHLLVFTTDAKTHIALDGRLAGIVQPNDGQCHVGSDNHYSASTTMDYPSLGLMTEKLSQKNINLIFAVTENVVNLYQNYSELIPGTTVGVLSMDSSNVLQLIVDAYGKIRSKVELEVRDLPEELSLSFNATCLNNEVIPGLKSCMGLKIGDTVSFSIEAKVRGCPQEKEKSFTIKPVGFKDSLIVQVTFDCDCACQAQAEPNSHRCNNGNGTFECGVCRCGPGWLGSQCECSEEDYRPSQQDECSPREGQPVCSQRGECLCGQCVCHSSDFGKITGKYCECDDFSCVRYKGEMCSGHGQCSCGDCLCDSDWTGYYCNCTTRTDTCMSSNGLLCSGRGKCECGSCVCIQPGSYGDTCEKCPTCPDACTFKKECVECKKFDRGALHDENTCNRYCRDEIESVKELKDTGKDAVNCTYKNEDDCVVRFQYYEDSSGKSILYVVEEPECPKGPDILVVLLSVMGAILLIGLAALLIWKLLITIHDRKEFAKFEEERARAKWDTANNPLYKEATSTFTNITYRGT
Experiment: competitive ELISA on αvβ3-coated plates with biotinylated NGR-TNF as labelled ligand (legend of FIG. 7)

Row | Binder | EC50 [nM]
1 | C[dD]GRCGVRY (cysteine pairing not given here) [D-DGR-pep (sequence of NGR-pep with D-D in place of N)] | 100
2 | C[βAsp]GRCGVRY (cysteine pairing not given here) [isoDGR-pep (sequence of NGR-pep with L-isoD in place of N)] | 100
